These results are taken from patent publication US20250042994A1 (HAINAN SIMCERE ZAIMING PHARMACEUTICAL, published 2025).

Test [1] concerns the target T1, human CD19 exon1-3-his protein (human, UniProt P15391 20-186, limits assumed).
T1 construct: made in HEK293E cells; also called membrane-distal end; not shown: His tag
T1 sequence (looked up): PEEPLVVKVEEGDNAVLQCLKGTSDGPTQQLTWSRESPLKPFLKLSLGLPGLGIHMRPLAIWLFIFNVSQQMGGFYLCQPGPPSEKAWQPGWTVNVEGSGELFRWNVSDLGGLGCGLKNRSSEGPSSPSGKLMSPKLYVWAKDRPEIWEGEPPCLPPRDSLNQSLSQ
Nature of the test: ELISA, coated at 2 ug/mL.

The target in the next test is T2, murine CD19 protein (murine, UniProt P25918 17-287, limits assumed).
T2 construct: bought protein; also called commercial murine CD19
T2 sequence (looked up): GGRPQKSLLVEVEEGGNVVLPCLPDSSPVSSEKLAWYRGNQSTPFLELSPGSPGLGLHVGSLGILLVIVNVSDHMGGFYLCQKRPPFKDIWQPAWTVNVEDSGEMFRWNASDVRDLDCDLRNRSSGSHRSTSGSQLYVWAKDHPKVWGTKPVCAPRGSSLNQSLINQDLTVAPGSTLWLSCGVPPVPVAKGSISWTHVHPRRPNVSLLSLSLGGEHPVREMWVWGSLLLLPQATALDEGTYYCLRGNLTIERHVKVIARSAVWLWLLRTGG
The test can be described thus: ELISA. As to the method: Human CD19-his protein (purchased from ACROBiosystems, catalog number: CD9-H52H2) was diluted with PBS to a final concentration of 4 μg/mL, and then added to a 96-well ELISA plate at 100 μl/well. The plate was sealed with a plastic film and incubated overnight at 4° C., the plate was washed 2 times with PBS the next day, and then a blocking solution [PBS+2% (w/w) BSA] was added for blocking at room temperature for 2 h. The blocking solution was poured off, and 100 nM gradiently diluted CD19 chimeric antibody or control antibody was added at 50 μl/well. After incubation at 37° C. for 2 h, the plate was washed 3 times with PBS. […] TMB substrate was added at 50 μl/well, and incubated at room temperature for 10 min, and then a stop solution (1.0 N HCl) was added at 50 μl/well. The OD450 nm values were read by an ELISA microplate reader (Multimode Plate Reader, EnSight, purchased from Perkin Elmer).
In order to detect the species cross-binding activity of the chimeric antibodies, an ELISA plate was coated with commercial murine CD19 (ACROBiosystems, catalog number: 50510-M08H) and monkey CD19 (ACROBiosystems, catalog number: 90051-C08H), respectively, and the ELISA detection was performed according to the method in example 5.1. […]

Another test addresses T3, monkey CD19-His protein (monkey).
T3 construct: bought protein; also called monkey CD19 protein
The test can be described thus: SPR Biacore, method of example 7.1, monkey CD19-His. As to the method:
A sample buffer and a running buffer were HBS-EP+ (10 mM HEPES, 150 mM NaCl, 3 mM EDTA and 0.05% surfactant P20) (GE Healthcare; BR-1006-69). The flow-through cell was set to 25° C. The sample block was set to 16° C. Both were pretreated with the running buffer. In each cycle, an antibody to be detected was first captured with a Protein A chip, and then a single concentration of CD19 antigen protein was injected. The binding and dissociation processes of the antibody and the antigen protein were recorded, and finally Glycine pH 1.5 (GE Healthcare; BR-1003-54) was used to complete chip regeneration. The binding was measured by injecting different concentrations of recombinant human CD19-His proteins in a solution for 240 s with a flow rate of 30 μl/min. The concentration started from 200 nM (see the detailed results for the actual concentration in the test) and was diluted at 1:1, making a total of 5 concentrations. The dissociation phase was monitored for up to 600 s and was triggered by switching from sample solution to running buffer. The surface was regenerated by washing with a 10 mM glycine solution (pH 1.5) for 30 s at a flow rate of 30 μl/min. Bulk refractive index difference was corrected by subtracting the response obtained from the goat anti-human Fc surface. Blank injection was also subtracted (=double reference). For calculation of apparent KD and other kinetic parameters, Langmuir 1:1 model was used.
According to the method in example 7.1, the affinity of the chimeric antibodies to monkey CD19 (ACROBiosystems, catalog number: 90051-C08H) protein was determined.

For test [2], the target named is T4, human CD19 exon1-3-His tag protein (human, UniProt P15391 20-186, limits assumed).
T4 construct: membrane-distal part of the extracellular region, made in HEK293E cells; not shown: His tag
T4 sequence (looked up): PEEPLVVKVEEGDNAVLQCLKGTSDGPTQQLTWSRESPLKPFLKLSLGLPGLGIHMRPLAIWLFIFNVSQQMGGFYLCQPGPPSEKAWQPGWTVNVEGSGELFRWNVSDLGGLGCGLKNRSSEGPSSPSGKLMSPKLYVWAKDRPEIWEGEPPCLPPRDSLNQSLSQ
Nature of the test: ELISA on coated human CD19 exon 1-3-His.

A further test has as its target T5, Human CD19-his protein (human, UniProt P15391 20-291).
T5 construct: bought protein; also called recombinant human CD19-His; CD19 full-length protein; not shown: His tag
T5 sequence (looked up): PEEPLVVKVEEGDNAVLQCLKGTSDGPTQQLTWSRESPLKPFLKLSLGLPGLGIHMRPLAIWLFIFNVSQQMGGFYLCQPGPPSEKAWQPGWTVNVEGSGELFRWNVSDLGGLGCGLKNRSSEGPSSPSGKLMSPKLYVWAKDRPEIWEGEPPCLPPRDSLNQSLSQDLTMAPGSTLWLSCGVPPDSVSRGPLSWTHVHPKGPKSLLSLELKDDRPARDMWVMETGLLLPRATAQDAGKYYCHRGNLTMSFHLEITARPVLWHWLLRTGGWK
The test can be described thus: SPR Biacore, Ab captured on Protein A, CD19-His analyte. The essentials:
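Apparent KD came from a Langmuir 1:1 fit of double-referenced sensorgrams. Recombinant human CD19-His analyte (top 200 nM, 1:1 serial dilution, 5 concentrations) flowed over Protein A-captured antibody for 240 s at 30 μl/min, then buffer for up to 600 s. Running buffer HBS-EP+ at 25 °C; regeneration with 10 mM glycine pH 1.5.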

B1: F3.121.4-L2H4 (antibody, mouse IgG1, kappa)
heavy: EVQLQQSGAEVKKPGASVKVSCKASGYTFTNYWMHWVRQRPGQGLEWMGEIDPSDNYANYNQEFQGRVTITVDKSASTAYMELSSLRSEDTAVYYCARHDGYFGALDYWGQGTTVTVSSAKTTPPSVYPLAPGSAAQTNSMVTLGCLVKGYFPEPVTVTWNSGSLSSGVHTFPAVLQSDLYTLSSSVTVPSSTWPSETVTCNVAHPASSTKVDKKIVPRDCGCKPCICTVPEVSSVFIFPPKPKDVLTITLTPKVTCVVVDISKDDPEVQFSWFVDDVEVHTAQTQPREEQFNSTFRSVSELPIMHQDWLNGKEFKCRVNSAAFPAPIEKTISKTKGRPKAPQVYTIPPPKEQMAKDKVSLTCMITDFFPEDITVEWQWNGQPAENYKNTQPIMDTDGSYFVYSKLNVQKSNWEAGNTFTCSVLHEGLHNHHTEKSLSHSPGK
light: EIVLTQSPDFQSVTPKEKVTITCSASSSISSNYLHWYQQKPDQSPKLLIKRTSNLASGVPSRFSGSGSGTDFTLTINSLEAEDAATYYCQQASSIPRMFTFGQGTKLEIKRADAAPTVSIFPPSSEQLTSGGASVVCFLNNFYPKDINVKWKIDGSERQNGVLNSWTDQDSKDSTYSMSSTLTLTKDEYERHNSYTCEATHKTSTSPIVKSFNRNEC
notes: murine IgG1 constant regions; also called humanized antibody of F3.121.4
Regarding B1, the binding result (in test [1]; with murine CD19 protein) was “no binding” each time.

B2: F3.121.4-L3H3 (antibody, mouse IgG1, kappa)
heavy: EVQLVQSGAEVKKPGASVKVSCKASGYTFTNYWMHWVRQRPGQGLEWMGEIDPSDNYANYNQEFQGRVTITVDKSASTAYMELSSLRSEDTAVYYCARHDGYFGALDYWGQGTTVTVSSAKTTPPSVYPLAPGSAAQTNSMVTLGCLVKGYFPEPVTVTWNSGSLSSGVHTFPAVLQSDLYTLSSSVTVPSSTWPSETVTCNVAHPASSTKVDKKIVPRDCGCKPCICTVPEVSSVFIFPPKPKDVLTITLTPKVTCVVVDISKDDPEVQFSWFVDDVEVHTAQTQPREEQFNSTFRSVSELPIMHQDWLNGKEFKCRVNSAAFPAPIEKTISKTKGRPKAPQVYTIPPPKEQMAKDKVSLTCMITDFFPEDITVEWQWNGQPAENYKNTQPIMDTDGSYFVYSKLNVQKSNWEAGNTFTCSVLHEGLHNHHTEKSLSHSPGK
light: EIVLTQSPDFQSVTPKEKVTITCSASSSISSNYLHWYQQKPDQSPKFLIYRTSNLASGVPSRFSGSGSGTDFTLTINSLEAEDAATYYCQQASSIPRMFTFGQGTKLEIKRADAAPTVSIFPPSSEQLTSGGASVVCFLNNFYPKDINVKWKIDGSERQNGVLNSWTDQDSKDSTYSMSSTLTLTKDEYERHNSYTCEATHKTSTSPIVKSFNRNEC
notes: as for B1
On to B2, for which the binding result (in test [1]; with murine CD19 protein) was “no binding” each time.

B3: F3.121.4-L3H2 (antibody, mouse IgG1, kappa, V domains shown)
VH: EVQLVQSGAEVKKPGASVKVSCKASGYTFTNYWMHWVRQAPGQGLEWMGEIDPSDNYANYNQEFQGRVTITVDKSASTAYMELSSLRSEDTAVYYCARHDGYFGALDYWGQGTTVTVSS
VL: EIVLTQSPDFQSVTPKEKVTITCSASSSISSNYLHWYQQKPDQSPKFLIYRTSNLASGVPSRFSGSGSGTDFTLTINSLEAEDAATYYCQQASSIPRMFTFGQGTKLEIKR
notes: as for B1
Regarding B3, the binding result (in test [1]; in the test with murine CD19 protein) was “no binding” in each case.

B4: F3.121.4-L3H1 (antibody, mouse IgG1, kappa, V domains shown)
VH: EVQLVQSGAEVKKPGASVKVSCKASGYTFTNYWMHWVRQAPGQRLEWMGEIDPSDNYANYNQEFQGRVTITVDKSASTAYMELSSLRSEDTAVYYCARHDGYFGALDYWGQGTTVTVSS
VL: EIVLTQSPDFQSVTPKEKVTITCSASSSISSNYLHWYQQKPDQSPKFLIYRTSNLASGVPSRFSGSGSGTDFTLTINSLEAEDAATYYCQQASSIPRMFTFGQGTKLEIKR
notes: as for B1
Turning to B4, the binding result (in test [1]; with murine CD19 protein) was “no binding” each time.

B5: F3.121.4-L3H4 (antibody, mouse IgG1, kappa)
heavy: EVQLQQSGAEVKKPGASVKVSCKASGYTFTNYWMHWVRQRPGQGLEWMGEIDPSDNYANYNQEFQGRVTITVDKSASTAYMELSSLRSEDTAVYYCARHDGYFGALDYWGQGTTVTVSSAKTTPPSVYPLAPGSAAQTNSMVTLGCLVKGYFPEPVTVTWNSGSLSSGVHTFPAVLQSDLYTLSSSVTVPSSTWPSETVTCNVAHPASSTKVDKKIVPRDCGCKPCICTVPEVSSVFIFPPKPKDVLTITLTPKVTCVVVDISKDDPEVQFSWFVDDVEVHTAQTQPREEQFNSTFRSVSELPIMHQDWLNGKEFKCRVNSAAFPAPIEKTISKTKGRPKAPQVYTIPPPKEQMAKDKVSLTCMITDFFPEDITVEWQWNGQPAENYKNTQPIMDTDGSYFVYSKLNVQKSNWEAGNTFTCSVLHEGLHNHHTEKSLSHSPGK
light: EIVLTQSPDFQSVTPKEKVTITCSASSSISSNYLHWYQQKPDQSPKFLIYRTSNLASGVPSRFSGSGSGTDFTLTINSLEAEDAATYYCQQASSIPRMFTFGQGTKLEIKRADAAPTVSIFPPSSEQLTSGGASVVCFLNNFYPKDINVKWKIDGSERQNGVLNSWTDQDSKDSTYSMSSTLTLTKDEYERHNSYTCEATHKTSTSPIVKSFNRNEC
notes: as for B1
As for B5, the binding result (in test [1]; with murine CD19 protein) was “no binding” in each case.

B6: F3.124.7 (antibody, human IgG1, V domains shown)
VH: EVQLQQSGPVLVKPGASVKMSCKASGYTFTDYYMNWVKQRHGKSLEWIGISNPYNGGTSYNQKFKDKATLTVDKSSSTAYMELNSLTSEDSAVYYCAREGGTAQPTSGMDYWGQGTSVTVSS
VL: NIMMTQSPSSLAVSAGEKVTMSCKSSQSVLYSSNQKNYLAWYQQKPGQSPKLLIYWASTRESGVPDRFTGSGSGTDFTLTISSVQPEDPAVYYCHQYRSSYTFGGGTKLEIK
notes: human-murine chimeric antibody, human IgG1 constant
In the test with monkey CD19-His protein, B6 came in with a dissociation constant (Kd) of 0.803 nM, an off-rate constant (koff) of 5.62e-05 s⁻¹ and a kon of 70000 M⁻¹ s⁻¹. For the same molecule, the “EC50 (read off the curve)” value in test [2] is roughly 0.03 nM. Further, in the test with Human CD19-his protein, the dissociation constant Kd was 1.99 nM, the koff was 0.000138 s⁻¹ and the on-rate constant (kon) is 69300 M⁻¹ s⁻¹.

B7: F3.118.14 (antibody, human IgG1, V domains shown)
VH: QVQLQQSGAELVRPGASVTLSCKASGYTFPDYEIHWVKQTPVHGLEWIGAIDPETGGIGYNQKFTGKAMLTADKSSSTAYMELRSLTSEDSAVYFCTRNYGSRWGQGSTLTVSS
VL: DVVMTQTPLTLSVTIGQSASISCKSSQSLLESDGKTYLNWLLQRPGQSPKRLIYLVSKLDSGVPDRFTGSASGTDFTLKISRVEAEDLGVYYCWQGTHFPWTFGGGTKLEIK
notes: as for B6
In the test with monkey CD19-His protein, B7 returned an equilibrium dissociation constant (Kd) of 0.00583 nM, a koff of 9.72e-08 s⁻¹ and a kon of 16700 M⁻¹ s⁻¹. In test [2], the “EC50 (read off the curve)” value is roughly 0.3 nM. Moreover, in the test with Human CD19-his protein, the dissociation constant Kd is 6.05 nM, the koff was 0.000326 s⁻¹ and the kon came to 53900 M⁻¹ s⁻¹.
